Measurements reported in publication PMC4547098 (eLife, 2015).

Experiments:
[1] = molecular target: AVR-PikD with non-cleavable C-terminal 6xHis tag (pOPINE) (Magnaporthe oryzae, UniProt C4B8B8 22-113); assay: SPR; Biacore T200, 25°C, single-cycle kinetics; […]; 50 mM HEPES pH 7.5, 150 mM NaCl, 0.1% Tween 20; details: both partners purified
[2] = molecular target: AVR-PikE with non-cleavable C-terminal 6xHis tag (pOPINE) (Magnaporthe oryzae, UniProt C4B8B8 22-113); assay: SPR; details: both partners purified

B1: Pikp-HMA domain (HMA integrated domain of the rice NLR Pikp-1) (domain or fragment)
chain: GLKQKIVIKVAMEGNNCRSKAMALVASTGGVDSVALVGDLRDKIEVVGYGIDPIKLISALRKKVGDAELLQVS
notes: also called Pikp1-HMA; Pikp-1 HMA; not shown: 6xHis+SUMO, N-terminal, cleaved
Kd [1]: 29 ± 3.5 nM
Kd [2]: 367 ± 41 nM
